Four molecules from US20230110188A1 (ARGENX IIP, published 2023) can be followed below.

Substitutions are numbered along the chain they refer to.

The chains are these.
T1: Mouse MuSK as it stands on mouse muscle (neuromuscular junctions, C2C12 myotubes) (mouse, UniProt Q61006 22-868)
T1 sequence (looked up): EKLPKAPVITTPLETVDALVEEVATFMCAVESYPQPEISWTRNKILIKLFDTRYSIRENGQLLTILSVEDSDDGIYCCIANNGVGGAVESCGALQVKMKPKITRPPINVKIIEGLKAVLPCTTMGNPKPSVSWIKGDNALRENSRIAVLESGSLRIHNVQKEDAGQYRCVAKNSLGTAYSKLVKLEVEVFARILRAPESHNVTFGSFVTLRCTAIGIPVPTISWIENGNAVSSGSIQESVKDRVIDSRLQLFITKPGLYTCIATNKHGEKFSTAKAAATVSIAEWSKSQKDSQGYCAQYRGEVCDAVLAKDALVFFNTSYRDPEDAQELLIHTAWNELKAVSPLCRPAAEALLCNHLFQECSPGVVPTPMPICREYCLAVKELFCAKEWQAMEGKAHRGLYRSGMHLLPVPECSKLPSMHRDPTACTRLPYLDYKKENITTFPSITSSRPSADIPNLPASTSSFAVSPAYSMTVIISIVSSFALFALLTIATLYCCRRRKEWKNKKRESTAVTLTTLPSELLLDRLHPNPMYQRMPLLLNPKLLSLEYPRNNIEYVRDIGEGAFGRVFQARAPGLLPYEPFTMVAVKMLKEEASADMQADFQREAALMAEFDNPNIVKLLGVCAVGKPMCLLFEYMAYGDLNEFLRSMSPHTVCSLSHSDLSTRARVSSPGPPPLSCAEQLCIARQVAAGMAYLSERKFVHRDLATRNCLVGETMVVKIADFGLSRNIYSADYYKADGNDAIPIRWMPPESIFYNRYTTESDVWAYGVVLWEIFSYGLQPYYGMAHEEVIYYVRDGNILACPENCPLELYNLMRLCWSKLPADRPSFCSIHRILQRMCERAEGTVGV

T2: Human MuSK (R&D Systems, cat. 10189-MK, histidine tag) (human, UniProt O15146 24-495)
T2 construct: Bought protein; also called human monomeric MuSK-6xhis; not shown: histidine tag (6xhis)
T2 sequence: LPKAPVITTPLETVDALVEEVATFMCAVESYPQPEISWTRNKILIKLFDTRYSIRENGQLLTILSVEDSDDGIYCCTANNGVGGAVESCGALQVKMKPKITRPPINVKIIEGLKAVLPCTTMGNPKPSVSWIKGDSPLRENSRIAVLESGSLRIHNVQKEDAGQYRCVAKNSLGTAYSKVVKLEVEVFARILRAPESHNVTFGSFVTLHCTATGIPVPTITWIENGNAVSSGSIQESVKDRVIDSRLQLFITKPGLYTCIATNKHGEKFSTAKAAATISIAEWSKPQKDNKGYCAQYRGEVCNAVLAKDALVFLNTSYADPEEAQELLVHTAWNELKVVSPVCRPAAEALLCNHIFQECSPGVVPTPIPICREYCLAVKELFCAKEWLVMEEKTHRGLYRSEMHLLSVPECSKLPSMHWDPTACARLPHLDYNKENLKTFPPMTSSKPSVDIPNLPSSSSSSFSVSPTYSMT

T3: Rhesus monkey MuSK (recombinant, streptavidine and Flag tag) (rhesus monkey, UniProt O15146 24-495 (human entry))
T3 construct: also called Rhesus MuSK; not shown: streptavidine and Flag tag
T3 chain: T2 sequence with I144T, I278V, V342L, I355V, V389A, L437P

T4: Mouse MuSK (recombinant, streptavidine and Flag tag) (mouse, UniProt Q61006 22-494)
T4 construct: not shown: streptavidine and Flag tag
T4 sequence: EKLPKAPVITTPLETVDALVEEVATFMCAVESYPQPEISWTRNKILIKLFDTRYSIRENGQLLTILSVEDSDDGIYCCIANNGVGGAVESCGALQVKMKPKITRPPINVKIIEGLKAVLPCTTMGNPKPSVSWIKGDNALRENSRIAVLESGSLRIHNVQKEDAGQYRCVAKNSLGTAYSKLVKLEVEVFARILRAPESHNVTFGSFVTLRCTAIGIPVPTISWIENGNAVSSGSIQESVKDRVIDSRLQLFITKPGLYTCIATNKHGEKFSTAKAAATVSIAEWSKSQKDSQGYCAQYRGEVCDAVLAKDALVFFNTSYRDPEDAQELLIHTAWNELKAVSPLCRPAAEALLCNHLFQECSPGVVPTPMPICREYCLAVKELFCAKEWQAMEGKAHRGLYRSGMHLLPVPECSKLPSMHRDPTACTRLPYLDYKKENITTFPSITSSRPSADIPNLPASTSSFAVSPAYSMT

B1: 3D10a (antibody, human IgG1, kappa, L234A L235A, V domains shown)
VH: EVQLVESGGGLVKPGGSLRLSCAASGFTFSASTMAWVRQAPGKGLEWVSSVSGDSHHIYYADSLKGRFTISRDNAKNSLYLQMNSLRAEDTAVYYCARERLLRLGVGFDSWGQGTLVTVSS
VL: DIQMTQSPSSLSASVGDRVTITCRASQRISGFVNWYQQKPGKAPKLLIYAASTLQSGVPSRFSGSGSGTDFTLTISSLQPEDFATYYCQQSYSPLYTFGQGTKLEIKR
B2: 3F6c (antibody, human IgG1, kappa, L234A L235A, V domains shown)
VH: EVQLVESGGGLVKPGGSLRLSCAASGFTFSSYTMDWVRQAPGKGLEWVSSIGSNGDYIYYADSVRGRFTISRDNAKNSLYLQMNSLRAEDTAVYYCARGQLAVAGTHFDYWGQGTLVTVSS
VL: B1 VL with R28K, I29V, S30N, G31K, F32Y, Y96S
B3: 4D3 (antibody, human IgG1, kappa, L234A L235A, V domains shown)
VH: B1 VH with A31S, S32Y, A35T, V51I, G53S, D54G, S55G, H57Y, A61T, S110F
VL: B1 VL with R28S, F32Y, V33L, P94A
B4: 3D9b (antibody, human IgG1, kappa, L234A L235A, V domains shown)
VH: EVQLVESGGGLVKPGGSLRLSCAASGFTFSTYTMHWVRQAPGKGLEWVSSISSRSAYKYYADSVKGRFTISRDNAKNSLYLQMNSLRAEDTAVYYCARDFFQLGPPRFDSWGQGTLVTVSS
VL: B1 VL with G31S, V33L, A50G, T53N, L95S

One test addresses T1, Mouse MuSK as it stands on mouse muscle …. Kind of test: cell-based or functional assay.
With B1, the “AChR clusters larger or equal to 15 µm (large clusters) compared to agrin; Exp 1, batch Argenx” value is 52 % of agrin; the “AChR clusters larger or equal to 15 µm (large clusters) compared to agrin; Exp 2, batch Argenx” value is 73 % of agrin; the “AChR clusters larger or equal to 15 µm (large clusters) compared to agrin; Exp 3, batch UPX” value was 61 % of agrin.

Regarding B2, the “AChR clusters larger or equal to 15 µm (large clusters) compared to agrin; Exp 1, batch Argenx” value was 56 % of agrin; the “AChR clusters larger or equal to 15 µm (large clusters) compared to agrin; Exp 2, batch Argenx” value is 70 % of agrin; the “AChR clusters larger or equal to 15 µm (large clusters) compared to agrin; Exp 3, batch UPX” value is 57 % of agrin.

On to B3, for which the “AChR clusters larger or equal to 15 µm (large clusters) compared to agrin; Exp 1, batch Argenx” value was 84 % of agrin; the “AChR clusters larger or equal to 15 µm (large clusters) compared to agrin; Exp 2, batch Argenx” value was 58 % of agrin; the “AChR clusters larger or equal to 15 µm (large clusters) compared to agrin; Exp 3, batch UPX” value is 59 % of agrin.

Turning to B4, the “AChR clusters larger or equal to 15 µm (large clusters) compared to agrin; Exp 1, batch Argenx” value is 80 % of agrin; the “AChR clusters larger or equal to 15 µm (large clusters) compared to agrin; Exp 2, batch Argenx” value was 74 % of agrin; the “AChR clusters larger or equal to 15 µm (large clusters) compared to agrin; Exp 3, batch UPX” value was 70 % of agrin.

A further test addresses T2, Human MuSK (R&D Systems, cat. 10189-MK, …). Kind of test: SPR (Biacore), MuSK-coated chip presaturated with 500 nM 3D10a (competitor). On the procedure: A chip was coated with ˜5000 RU of human MuSK (Lot nr DHUCO 11908A, batch nr 1089_MK). In a first experiment the saturating concentration of the pre-leads was determined. This is the concentration where the amplitude of a specific pre-lead doesn't increase anymore when additional pre-lead is injected on the immobilized MuSK.
(In general: Surface plasmon resonance follows binding to a sensor surface in real time, without labels.)
Turning to B1, the “amplitude of prelead after presaturating MuSK (RU)” value (“amplitude of prelead” for short) amounted to 56 RU, the “extra amplitude (%)” value came out at 1.8% and the “normalized extra amplitude (%)” value was 0.2%.

For B2, the “amplitude of prelead” value is 26 RU, the “extra amplitude (%)” value was determined as 1% and the “normalized extra amplitude (%)” value is -0.6%.

B3: the “amplitude of prelead” value amounted to 42 RU, the “extra amplitude (%)” value came to 1.6% and the “normalized extra amplitude (%)” value came to 0%.

On to B4, for which the “amplitude of prelead” value came out at 169 RU, the “extra amplitude (%)” value is 8% and the “normalized extra amplitude (%)” value came out at 6.4%.

The next test has the same target. Kind of test: SPR (Biacore), antibody captured on anti-hFc chip, MuSK injected 0.3125-10 nM. As for the experimental part:
(§1) The affinity of 3D10a, 4D3, 3F6c and 3D9b for human, rhesus monkey and mouse MuSK was tested in Biacore using the setup shown in FIG. 3. […] The affinities are very high keeping in mind that MuSK was added here in solution, allowing only for monovalent binding (affinity versus avidity).
Molecule B1 displayed a Kd of 0.16 nM.

B2 displayed a Kd of 0.05 nM.

On to B3, for which the Kd is 0.26 nM.

Take B4: the Kd turned out to be 0.17 nM.

A further test addresses T3, Rhesus monkey MuSK (recombinant, …). The description is as above. On the procedure: as §1
With B1, the Kd stood at 0.21 nM.

Regarding B2, the dissociation constant Kd was found to be 0.13 nM.

Consider B3, for which the Kd was 0.31 nM.

With B4, the Kd was determined as 0.28 nM.

Another test concerns the target T4, Mouse MuSK (recombinant, streptavidine …). The description is as above. On the procedure: as §1
On to B1, for which the Kd came to 0.1 nM.

As to B2, the Kd stood at 0.03 nM.

Consider B3, for which the Kd amounted to 0.17 nM.

Turning to B4, the equilibrium dissociation constant (Kd) stood at 0.14 nM.

For orientation: Kd means the equilibrium constant for the complex coming apart.
